Test results published in IntAct's records for PubMed 22505024.

B1: ERBB receptor feedback inhibitor 1 (Homo sapiens), Q9UJM3 (parent)
chain: MSIAGVAAQEIRVPLKTGFLHNGRAMGNMRKTYWSSRSEFKNNFLNIDPITMAYSLNSSAQERLIPLGHASKSAPMNGHCFAENGPSQKSSLPPLLIPPSENLGPHEEDQVVCGFKKLTVNGVCASTPPLTPIKNSPSLFPCAPLCERGSRPLPPLPISEALSLDDTDCEVEFLTSSDTDFLLEDSTLSDFKYDVPGRRSFRGCGQINYAYFDTPAVSAADLSYVSDQNGGVPDPNPPPPQTHRRLRRSHSGPAGSFNKPAIRISNCCIHRASPNSDEDKPEVPPRVPIPPRPVKPDYRRWSAEVTSSTYSDEDRPPKVPPREPLSPSNSRTPSPKSLPSYLNGVMPPTQSFAPDPKYVSSKALQRQNSEGSASKVPCILPIIENGKKVSSTHYYLLPERPPYLDKYEKFFREAEETNGGAQIQPLPADCGISSATEKPDSKTKMDLGGHVKRKHLSYVVSP
partner: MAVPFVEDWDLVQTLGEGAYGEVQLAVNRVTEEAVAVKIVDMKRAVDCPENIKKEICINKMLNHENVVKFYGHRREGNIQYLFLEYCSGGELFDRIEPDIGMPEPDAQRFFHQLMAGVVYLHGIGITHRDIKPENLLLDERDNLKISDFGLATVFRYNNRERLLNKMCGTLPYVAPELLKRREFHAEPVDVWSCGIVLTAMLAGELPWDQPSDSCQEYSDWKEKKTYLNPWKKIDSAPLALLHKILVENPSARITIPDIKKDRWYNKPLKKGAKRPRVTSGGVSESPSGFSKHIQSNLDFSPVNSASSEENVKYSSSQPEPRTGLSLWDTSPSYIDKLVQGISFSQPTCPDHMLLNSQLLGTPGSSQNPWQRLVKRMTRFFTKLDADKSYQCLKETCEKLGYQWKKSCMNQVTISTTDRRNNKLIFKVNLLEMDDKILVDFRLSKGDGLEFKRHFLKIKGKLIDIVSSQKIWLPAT

Variants of: B1
Conditions: with chk1_human CHEK1, O14757

Row | effect of a mutation on the interaction | Variant
1 | decreasing interaction | MSIAGVAAQEIRVPLKTGFLHNGRAMGNMRKTYWSSRSEFKNNFLNIDPITMAYSLNSSAQERLIPLGHASKSAPMNGHCFAENGPSQKSSLPPLLIPPSENLGPHEEDQVVCGFKKLTVNGVCASTPPLTPIKNSPSLFPCAPLCERGSRPLPPLPISEALSLDDTDCEVEFLTSSDTDFLLEDSTLSDFKYDVPGRRSFRGCGQINYAYFDTPAVSAADLSYVSDQNGGVPDPNPPPPQTHRRLRRSHAGPAGSFNKPAIRISNCCIHRASPNSDEDKPEVPPRVPIPPRPVKPDYRRWSAEVTSSTYSDEDRPPKVPPREPLSPSNSRTPSPKSLPSYLNGVMPPTQSFAPDPKYVSSKALQRQNSEGSASKVPCILPIIENGKKVSSTHYYLLPERPPYLDKYEKFFREAEETNGGAQIQPLPADCGISSATEKPDSKTKMDLGGHVKRKHLSYVVSP [S251A]
2 | decreasing interaction | MSIAGVAAQEIRVPLKTGFLHNGRAMGNMRKTYWSSRSEFKNNFLNIDPITMAYSLNSSAQERLIPLGHASKSAPMNGHCFAENGPSQKSSLPPLLIPPSENLGPHEEDQVVCGFKKLTVNGVCASTPPLTPIKNSPSLFPCAPLCERGSRPLPPLPISEALSLDDTDCEVEFLTSSDTDFLLEDSTLSDFKYDVPGRRSFRGCGQINYAYFDTPAVSAADLSYVSDQNGGVPDPNPPPPQTHRRLRRAHSGPAGSFNKPAIRISNCCIHRASPNSDEDKPEVPPRVPIPPRPVKPDYRRWSAEVTSSTYSDEDRPPKVPPREPLSPSNSRTPSPKSLPSYLNGVMPPTQSFAPDPKYVSSKALQRQNSEGSASKVPCILPIIENGKKVSSTHYYLLPERPPYLDKYEKFFREAEETNGGAQIQPLPADCGISSATEKPDSKTKMDLGGHVKRKHLSYVVSP [S249A]

Variants of: B1
Conditions: with chk1_human CHEK1, O14757
Remark: another data set of the same source

Row | effect of a mutation on the interaction | Variant
3 | decreasing interaction | MSIAGVAAQEIRVPLKTGFLHNGRAMGNMRKTYWSSRSEFKNNFLNIDPITMAYSLNSSAQERLIPLGHASKSAPMNGHCFAENGPSQKSSLPPLLIPPSENLGPHEEDQVVCGFKKLTVNGVCASTPPLTPIKNSPSLFPCAPLCERGSRPLPPLPISEALSLDDTDCEVEFLTSSDTDFLLEDSTLSDFKYDVPGRRSFRGCGQINYAYFDTPAVSAADLSYVSDQNGGVPDPNPPPPQTHRRLRRSHSGPAGSFNKPAIRISNCCIHRASPNSDEDKPEVPPRVPIPPRPVKPDYRRWSAEVTSSTYSDEDRPPKVPPREPLSPSNSRTPSPKSLPSYLNGVMPPTQSFAPDPKYVSSKALQRQNAEGSASKVPCILPIIENGKKVSSTHYYLLPERPPYLDKYEKFFREAEETNGGAQIQPLPADCGISSATEKPDSKTKMDLGGHVKRKHLSYVVSP [S369A]
4 | decreasing interaction | MSIAGVAAQEIRVPLKTGFLHNGRAMGNMRKTYWSSRSEFKNNFLNIDPITMAYSLNSSAQERLIPLGHASKSAPMNGHCFAENGPSQKSSLPPLLIPPSENLGPHEEDQVVCGFKKLTVNGVCASTPPLTPIKNSPSLFPCAPLCERGSRPLPPLPISEALSLDDTDCEVEFLTSSDTDFLLEDSTLSDFKYDVPGRRSFRGCGQINYAYFDTPAVSAADLSYVSDQNGGVPDPNPPPPQTHRRLRRSHSGPAGSFNKPAIRISNCCIHRASPNSDEDKPEVPPRVPIPPRPVKPDYRRWSAEVTSSTYSDEDRPPKVPPREPLSPSNSRTPAPKSLPSYLNGVMPPTQSFAPDPKYVSSKALQRQNSEGSASKVPCILPIIENGKKVSSTHYYLLPERPPYLDKYEKFFREAEETNGGAQIQPLPADCGISSATEKPDSKTKMDLGGHVKRKHLSYVVSP [S334A]
5 | decreasing interaction | MSIAGVAAQEIRVPLKTGFLHNGRAMGNMRKTYWSSRSEFKNNFLNIDPITMAYSLNSSAQERLIPLGHASKSAPMNGHCFAENGPSQKSSLPPLLIPPSENLGPHEEDQVVCGFKKLTVNGVCASTPPLTPIKNSPSLFPCAPLCERGSRPLPPLPISEALSLDDTDCEVEFLTSSDTDFLLEDSTLSDFKYDVPGRRSFRGCGQINYAYFDTPAVSAADLSYVSDQNGGVPDPNPPPPQTHRRLRRSHSGPAGSFNKPAIRISNCCIHRASPNSDEDKPEVPPRVPIPPRPVKPDYRRWAAEVTSSTYSDEDRPPKVPPREPLSPSNSRTPSPKSLPSYLNGVMPPTQSFAPDPKYVSSKALQRQNSEGSASKVPCILPIIENGKKVSSTHYYLLPERPPYLDKYEKFFREAEETNGGAQIQPLPADCGISSATEKPDSKTKMDLGGHVKRKHLSYVVSP [S302A]
